Target: cysteine-free green-absorbing Proteorhodopsin
Test: cross-linking

- stoichiometry N: 6
Substance: cysteine-free green-absorbing Proteorhodopsin (natural protein)

From paper PMC4374980
